Laboratory results taken from the nanobody polyreactivity screen of Harvey et al. (2022).

Test: yeast display, Sf9 membrane polyspecificity reagent, FACS + sequencing; frameworks hold sequencing errors
Method in brief: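 Genes from sorted yeast were amplified by colony PCR, read by MiSeq 2 × 250 sequencing and filtered on CDR length. These cells carried a synthetic nanobody library in Saccharomyces cerevisiae BJ5465 and were sorted by FACS into low and high (top ~1%) gates on anti-HA and streptavidin fluorescence. Polyreactivity is labelled according to the gate of origin.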

QVQLVESGGGLVQAGGSLRLSCAASGSTFSGYVMGWYRQAPGKERELVAAISSSGGGSTYYADSVKGRFTISRDNAKNTVYLQMNSLKPEDTAVYYCAARNYRKYDYWGQGTQVTVSS
polyreactivity (PSR sort gate): high polyreactivity

QVQLVESGGGLVQAGGSLRLSCAASGSTFSHNTMGWYRQAPGKERELVAAISSRGSSTYYADSVKGRFTISRDNAKNTVYLQMNSLKPEDTAVYYCAARYLRGTWAGLGYDYWGQGTQVTVSS
polyreactivity (PSR sort gate): low polyreactivity

QVQLVESGGGLVQAGGSLRLSCAASGSTFSHYAMGWYRQATGKERELVAAISKSGGITYYADSVKGRFTISRDNAKNTVYLQMNSLKPEDTAVYYCNARWSWRGTRYDYGYWGQGTQVTVSS
polyreactivity (PSR sort gate): low polyreactivity

QVQLVESGGGLVQAGGSLRLSCAASGSTFSIYAMGWYRQAPGKERELVAAISFSDASTYYADSVKGRFTISRDNAKNTVYLQMNSLKPEDTAVYYCAAVVGAFKRRFYYWGQGTQVTVSS
polyreactivity (PSR sort gate): high polyreactivity

QVQLVESGGGLVQAGGSLRLSCAASGSTFSIYAMGWYRQAPGKERELVADITANGGSTYYADSVKGRFTISRDNAKNTVYLPMNSLKPEDTAVYYCAADAKSFDAVHYDYWGQGTHVTVSS
polyreactivity (PSR sort gate): low polyreactivity

QVQLVESGGGLVQAGGSLRLSCAASGSTFSIYARGWYRPAPGKERELVAAISYSDGTTYSADSVKGRFTISRDNAKNTDYVQMNSLKPEDTAVYYCATQQIWTSWYDRFDYWGQGTQVTVSS
polyreactivity (PSR sort gate): low polyreactivity

QVQLVESGGGLVQAGGSLRLSCAASGSTFSKNAMGWNRQAPGKERELFAAIRSRGGSTYYADSVKGRFTISRDNAKNTVYLQMNSLKPEDTAVYYCNKVRAYECDYWGQGTKVTVSS
polyreactivity (PSR sort gate): high polyreactivity

QVQLVESGGGLVQAGGSLRLSCAASGSTFSKYTMGWYRQAPGKERELVAAISVSVGRTYYADSVKGRFTISRDNAKNTVYLQMNSLKPEDTAVYYCAAAYSGLYYWGQGTQVTVSS
polyreactivity (PSR sort gate): high polyreactivity

QVQLVESGGGLVQAGGSLRLSCAASGSTFSLNAIGWFRQAPGKERQLVAAITGRGTRTYYADSVKGRFTLSRDNAKNTVYLQMNSLKPEDTAVYYCAKDYPRGSPYGYNYWGQGTQVTVSS
polyreactivity (PSR sort gate): high polyreactivity

QVQLVESGGGLVQAGGSLRLSCAASGSTFSLYAMGWYRQAPGKERELVAAINSGTSTYYADSVKGRFTISRDNAKNTVYLQMNSLKPEDTAVYYCAADGYPLQLYNYWGQGTQVTVSS
polyreactivity (PSR sort gate): low polyreactivity

QVQLVESGGGLVQAGGSLRLSCAASGSTFSLYAMGWYRQAPGKERELVARISYTDGSTYYADSVKGRFTISRDNAKNTVYLQMNSLKPEDTAVYYCAADAWYSYTLEDYWGQGTQVTVSS
polyreactivity (PSR sort gate): low polyreactivity

QVQLVESGGGLVQAGGSLRLSCAASGSTFSLYAMGWYRQSPGKETELVASITWGGGSTYADSVKRLFTISRDNAKNTVYLQMNSLKPEDPAVYYCARKYRYRVLYDFAYDHWGQGTEVTVSS
polyreactivity (PSR sort gate): low polyreactivity

QVQLVESGGGLVQAGGSLRLSCAASGSTFSLYGMGWYRQAPGKERELVAAIRRSGGRTYYADSVKGRFTISRDNAKNTVYLQMNSLKPEDTAVYYCAKSVPRYYSKSGLAYEFDYWGQGTQVTVSS
polyreactivity (PSR sort gate): low polyreactivity

QVQLVESGGGLVQAGGSLRLSCAASGSTFSLYTMGWYRQAPGKERELVAAITWTGGSTYYADSVKGRFTISRDNAKNTVYLQMNSLKPEDTAVYYCAAVSRLTGSRESQLIRSRMYYWGQGTQVTVSS
polyreactivity (PSR sort gate): high polyreactivity

QVQLVESGGGLVQAGGSLRLSCAASGSTFSNNTMGWYRQAPGKETELVATIDFNGGSTYYADSVKGRFTISRDNAKNTVYLQMNSLKPEDTAGYYCAAAEYLYTLPYGYWGQGTQVTVSS
polyreactivity (PSR sort gate): low polyreactivity

QVQLVESGGGLVQAGGSLRLSCAASGSTFSNNVMGGYIQAPGKERELVAAISSRGGSTYYADSVKGRFTISRDNAKNTVYLQMNSLKPEDTAVYYCAADQWYAFILGYPMVYWGQGTQVTVSS
polyreactivity (PSR sort gate): high polyreactivity

QVQLVESGGGLVQAGGSLRLSCAASGSTFSNYAMGWYRQAPGKERELVASISNGGSTNYADSVKGRFTISRDNAKNTVYLQMNSLKPEDTAVYNCNAESKAKYDYWGQGTQVTVSS
polyreactivity (PSR sort gate): low polyreactivity

QVQLVESGGGLVQAGGSLRLSCAASGSTFSPYAMGWYRQAPGKEMDFVAAITSSGGSTYYADSVKGRFTISRDNAKNTVYLQMNSLKPEDTALYYFAAEGYYTSTYDLFDYYYWGQGTQVTVSS
polyreactivity (PSR sort gate): low polyreactivity

QVQLVESGGGLVQAGGSLRLSCAASGSTFSQNAMGWYRQAPGKERELVDAITSGGITYYADSVKGRFTISRDNAKNTVYLQMNSLKPEDTAVYYCNADAIVSPYRLWTVTYYYWGQGTQVTVSS
polyreactivity (PSR sort gate): low polyreactivity

QVQLVESGGGLVQAGGSLRLSCAASGSTFSRNAMGWYRQAPGKEREFVAAISTSGDSTYYADSVKGRFTISRDNAKNTVYLQMNSLKPEDTAVYYCADDGFWIAYQEGDYWGQGTQVTVSS
polyreactivity (PSR sort gate): low polyreactivity

QVQLVESGGGLVQAGGSLRLSCAASGSTFSRNAMGWYRQAPGKERELVAAISRRGGSTYYADSVKGRFTISRDNAKNTVYLQMNSLKPEDTAVYYCNRDSSYKNNYDYWGQGTQVTVSS
polyreactivity (PSR sort gate): high polyreactivity

QVQLVESGGGLVQAGGSLRLSCAASGSTFSRYAMGWSRQAPGKERELVAAISSSGGSTYYADSVKGRFTISRDNAKNTVYLQMNSLKPEDTAVYYCAARIWRTRRYDYWGQGTQVTVSS
polyreactivity (PSR sort gate): high polyreactivity

QVQLVESGGGLVQAGGSLRLSCAASGSTFSRYAMGWSRQAPGKERELVAAISWSGGSTYYAVSVKGRFTISRDNAKNTVYLQMISLKPEDTAVYYCAAYTYSFRANHDYWGQGTQVTVSS
polyreactivity (PSR sort gate): high polyreactivity

QVQLVESGGGLVQAGGSLRLSCAASGSTFSRYAMGWYRQAPGKERELVAAISGSGGSTSYADSVKGRFTISRDNAKNTVYLQMNSLKPEDTAVYYCAAYYLWYSRAFDYWGQGTQVTVSS
polyreactivity (PSR sort gate): high polyreactivity

QVQLVESGGGLVQAGGSLRLSCAASGSTFSRYAMGWYRQAPGKERELVAAISSSGGSTYYADSVKGRFTISRDTAKNTVYLQMNSLKPEDTAVYYCAVSHKYYGRRDYWGQGTQVTVSS
polyreactivity (PSR sort gate): high polyreactivity

QVQLVESGGGLVQAGGSLRLSCAASGSTFSRYAMGWYRQAPGKERELVAAISWGGNTYYADSVKGRFTISRDNAKNTVYLQMNSLKPEDTAVYYCNRYSKLYNTMDYWGQGTQVTVSS
polyreactivity (PSR sort gate): high polyreactivity

QVQLVESGGGLVQAGGSLRLSCAASGSTFSRYAMGWYRQAPGKERELVAAISYSGDSTYYADSVKGRFTISRDYAKNTVYLQMNSLKPEDTAVYYCNVYSHYRGYYWGQGTQVTVSS
polyreactivity (PSR sort gate): high polyreactivity

QVQLVESGGGLVQAGGSLRLSCAASGSTFSRYAMGWYRQAPGKERELVAAITASGGSTYYADSVKGRFTISRDNAKNTVYLQMNRLKPEDTAVYYCAASYQVRYDYWGQGTQVTVSS
polyreactivity (PSR sort gate): high polyreactivity

QVQLVESGGGLVQAGGSLRLSCAASGSTFSRYAMGWYRQAPGKERELVAAITSSGGSSYYADSVKGRFTISRDNAKNTVYLQMNSLKPEDTAVYYCAASYQVRYDYWGQGTQVTVSS
polyreactivity (PSR sort gate): high polyreactivity

QVQLVESGGGLVQAGGSLRLSCAASGSTFSRYTMGWYRQAPGKERELVAAISKSGGSTYYADSVKGRFTISRDNAKNTVYLQMNSLKPEDTAVYYCAALVRAGTSLDYDYWGQGTEVTVSS
polyreactivity (PSR sort gate): high polyreactivity

QVQLVESGGGLVQAGGSLRLSCAASGSTFSSNAMGWYRQAPGKERELVAAINRRGGTYYADSVKGRFTISRDNAKNTVYLQMNSLKPEDTAVYYCAAASPYHEYDYWGQGTQVTVSS
polyreactivity (PSR sort gate): low polyreactivity

QVQLVESGGGLVQAGGSLRLSCAASGSTFSSNGMGWYRPAPGKERELVAAITSGGSTNYADSVKGRFTISRDNAKNTVYLQMNSLKPEDTAVYYCNAERTAYGGGDYWGQGTQVTVSS
polyreactivity (PSR sort gate): low polyreactivity

QVQLVESGGGLVQAGGSLRLSCAASGSTFSSNPMGWYRQAPGKERELVAAISVNGGSTNYADSVKGRFTISRDNAKNTVYLQMNSLKPVDTAVYYCAAEPAKVAFYRGDYWGQGTQVTVSS
polyreactivity (PSR sort gate): low polyreactivity

QVQLVESGGGLVQAGGSLRLSCAASGSTFSSYAMGRYRQAPGKERELVAVITRGTSTNYADSVKGRFTISRDNAKNTVYLQMNSLKPEDTAVYYCNARRGSRRFGYWGQGTQVNVSS
polyreactivity (PSR sort gate): high polyreactivity

QVQLVESGGGLVQAGGSLRLSCAASGSTFSSYAMGWYRQAPGKERELVAAISRRGGRTYYADSVKGRFTISRDNAKNTVYLQMNRLKPEDTAVYYCAADWGVRDEYYYWGQGTQVTVSS
polyreactivity (PSR sort gate): high polyreactivity

QVQLVESGGGLVQAGGSLRLSCAASGSTFSSYAMGWYRQAPGKERELVAATYYADSVKGRFTISRDNAKNTVYLQMNSLKPEDTAVYYCNADNDYQGGKEYDYWGQGTQVTVSS
polyreactivity (PSR sort gate): low polyreactivity

QVQLVESGGGLVQAGGSLRLSCAASGSTFSSYVMGWYRKAPVKERELVAAISSIGGSTYFADSVKGRFTISRDNAKNTVYLQMNSLKPEDTAVYFCAAEPPGSTYEGGYWGQGTQVTVSS
polyreactivity (PSR sort gate): low polyreactivity

QVQLVESGGGLVQAGGSLRLSCAASGSTFSTNALGWYREAPGKELELVDDISSSSGRTYYADSVKGRFTISRDNAKNTVYLQMNSLKPEDTAVYYCAAANQGYRSGRKGVQRFDYWGQGTQVTVSS
polyreactivity (PSR sort gate): high polyreactivity

QVQLVESGGGLVQAGGSLRLSCAASGSTFSTNAMGWFIQAPGKARELVAGISRSGGRTYYADSVKGRFTISRDNAKTTVYLQMNSLKPEETAVYYSNAVRRFASPSPHYYWGQGTQVTLSS
polyreactivity (PSR sort gate): high polyreactivity

QVQLVESGGGLVQAGGSLRLSCAASGSTFSTNAMGWYRPAPAKEREFGAAITWSGDSTDYADSVKGRFTISRDNAKNTVYLHMNSLKPEDTAVYYCSAGPFLESYRGYSEMDYWGQGTQVTVSS
polyreactivity (PSR sort gate): low polyreactivity

QVQLVESGGGLVQAGGSLRLSCAASGSTFSTNAMGWYRQAPGKERELVAAISRRGGNTYYADSVKGRFTISRDNAKNTVYLQMNSLKPEDTAGYYCAAKYYRFGDPDRYDYWGQGTQVTVSS
polyreactivity (PSR sort gate): high polyreactivity

QVQLVESGGGLVQAGGSLRLSCAASGSTFSTYAMGWYRQAPGKERELVAAIRSGGSTYYADSVKGRFTISRDNAKNTVYLQMNSLKPEDTAVYYCAAKPRNYSYRYYYWGQGTLVTVSS
polyreactivity (PSR sort gate): high polyreactivity

QVQLVESGGGLVQAGGSLRLSCAASGSTFSTYAMGWYRQAPGKERELVAAITRRGGRTYYADSVKGRFTISRDNAKNTVYLQMNSLKPEDTAVYYCAKTSPVSDGYYWGQGTQVTVSS
polyreactivity (PSR sort gate): high polyreactivity
